Results reported in patent US20190010205A1 (JCR PHARMACEUTICALS, published 2019).
One block for each binder: values may come before it.

Experiments:
Assay in all cases: cell-based or functional assay
[1] = target: T1, human GH receptor (hGHR) expressed on mouse BaF3 cells (BaF3/hGHR cells) (human, UniProt P10912 19-638)
T1 sequence (looked up): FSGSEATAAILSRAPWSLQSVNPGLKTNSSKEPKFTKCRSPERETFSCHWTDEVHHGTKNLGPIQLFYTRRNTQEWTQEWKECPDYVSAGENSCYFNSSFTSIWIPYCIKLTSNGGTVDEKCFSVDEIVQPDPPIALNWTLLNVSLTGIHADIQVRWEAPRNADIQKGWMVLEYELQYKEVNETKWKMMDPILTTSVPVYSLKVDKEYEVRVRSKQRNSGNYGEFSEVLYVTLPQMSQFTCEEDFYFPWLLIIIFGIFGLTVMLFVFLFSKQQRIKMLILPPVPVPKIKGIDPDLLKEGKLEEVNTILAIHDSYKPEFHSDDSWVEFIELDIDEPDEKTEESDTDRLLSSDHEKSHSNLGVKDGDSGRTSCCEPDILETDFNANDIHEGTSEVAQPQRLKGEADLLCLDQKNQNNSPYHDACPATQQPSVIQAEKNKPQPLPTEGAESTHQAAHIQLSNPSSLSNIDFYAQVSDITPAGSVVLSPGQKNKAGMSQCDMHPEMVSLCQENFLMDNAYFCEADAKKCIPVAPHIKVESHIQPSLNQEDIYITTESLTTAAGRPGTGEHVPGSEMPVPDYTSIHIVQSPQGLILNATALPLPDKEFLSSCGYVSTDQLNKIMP

[2] = target: T2, human prolactin receptor (hPRLR) expressed on mouse BaF3 cells (BaF3/hPRLR cells) (human, UniProt P16471 25-622)
T2 sequence (looked up): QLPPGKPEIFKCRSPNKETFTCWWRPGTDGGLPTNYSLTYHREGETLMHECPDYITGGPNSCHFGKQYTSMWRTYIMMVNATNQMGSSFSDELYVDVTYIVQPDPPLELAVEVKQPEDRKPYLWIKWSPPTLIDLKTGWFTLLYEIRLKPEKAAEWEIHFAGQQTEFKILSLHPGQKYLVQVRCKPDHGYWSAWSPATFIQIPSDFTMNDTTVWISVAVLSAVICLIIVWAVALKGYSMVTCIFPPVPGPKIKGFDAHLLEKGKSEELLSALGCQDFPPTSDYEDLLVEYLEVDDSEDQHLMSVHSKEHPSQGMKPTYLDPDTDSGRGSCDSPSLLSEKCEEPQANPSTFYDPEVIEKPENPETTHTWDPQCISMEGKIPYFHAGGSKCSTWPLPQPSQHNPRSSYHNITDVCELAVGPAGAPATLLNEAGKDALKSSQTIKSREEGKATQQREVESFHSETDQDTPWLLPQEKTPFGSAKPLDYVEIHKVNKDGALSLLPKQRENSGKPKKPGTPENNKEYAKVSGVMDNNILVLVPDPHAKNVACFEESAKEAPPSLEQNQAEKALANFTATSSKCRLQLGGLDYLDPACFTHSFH

[3] = target: HSA-20K hGH (human)
[4] = target: HSA-[linker]-20K hGH (human)

EC50 (row printed as ED50), cell growth activity using BaF3/hGHR cells [1]: 0.00084 nM | EC50 (row printed as ED50), prolactin-like activity using BaF3/hPRLR cells [2]: 0.27 nM
B1: 20K human growth hormone (ATGen Inc.) (ligand)
chain: FPTIPLSRLFDNAMLRAHRLHQLAFDTYQEFNPQTSLCFSESIPTPSNREETQQKSNLELLRISLLLIQSWLEPVQFLRSVFANSLVYGASDSNVYDLLKDLEEGIQTLMGRLEDGSPRTGQIFKQTYSKFDTNSHNDDALLKNYGLLYCFRKDMDKVETFLRIVQCRSVEGSCGF

IC50 of hGHBP against cell growth activity on BaF3/hGHR cells (by extrapolation) [3]: 250 to 350 nM | IC50 of hGHBP against cell growth activity on BaF3/hGHR cells (by extrapolation) [4]: 250 to 350 nM
B2: recombinant human growth hormone binding protein (rhGHBP, BioVision Inc.) (receptor, UniProt P10912 19-264, looked up)
chain: FSGSEATAAILSRAPWSLQSVNPGLKTNSSKEPKFTKCRSPERETFSCHWTDEVHHGTKNLGPIQLFYTRRNTQEWTQEWKECPDYVSAGENSCYFNSSFTSIWIPYCIKLTSNGGTVDEKCFSVDEIVQPDPPIALNWTLLNVSLTGIHADIQVRWEAPRNADIQKGWMVLEYELQYKEVNETKWKMMDPILTTSVPVYSLKVDKEYEVRVRSKQRNSGNYGEFSEVLYVTLPQMSQFTCEEDFY
